Assay in all cases: high-throughput RNA pulldown from lysate on Ni-NTA beads; HRP: 50 mM Tris pH 8, 150 mM NaCl, 1 mM beta-mercaptoethanol, 50 ug/ml BSA, 3 ug/ml yeast RNA, 0.5% heparin; ITC and FP: Tris pH 8, 200 mM KCl, 5% glycerol; MST: 50 mM Tris pH 8, 200 mM NaCl, 1 mM DTT, BSA, heparin, 0.05% Tween 20
Common to all, as to settings: tags: N-terminal His-eGFP

Data set [1] has as its target T1, GFP-9S library array, motif 4 ND N98S;D124P (synthetic construct, N98S;D124P).
T1 chain: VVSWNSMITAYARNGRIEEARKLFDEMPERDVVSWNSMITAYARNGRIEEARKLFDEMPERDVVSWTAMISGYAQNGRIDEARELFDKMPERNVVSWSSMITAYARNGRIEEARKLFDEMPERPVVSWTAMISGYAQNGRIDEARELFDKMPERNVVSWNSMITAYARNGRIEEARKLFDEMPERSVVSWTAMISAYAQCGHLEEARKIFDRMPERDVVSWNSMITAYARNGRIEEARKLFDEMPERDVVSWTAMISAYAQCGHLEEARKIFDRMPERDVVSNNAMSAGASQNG

The target of data set [2] is T2, GFP-9S library array, motif 4 ND N98A;D124P (synthetic construct, N98A;D124P).
T2 chain: T1 chain with S98A

The target in data set [3] is T3, GFP-9S library array, motif 4 ND N98R;D124T (synthetic construct, N98R;D124T).
T3 chain: T1 chain with S98R, P124T

Data set [4] addresses T4, GFP-9S library array, motif 4 ND N98V;D124Q (synthetic construct, N98V;D124Q).
T4 chain: T1 chain with S98V, P124Q

Data set [5] concerns the target T5, GFP-9S library array, motif 4 ND N98H;D124F (synthetic construct, N98H;D124F).
T5 chain: T1 chain with S98H, P124F

Positions count from the first letter of the chain named.

Usually Kd stands for a measure of binding affinity in units of concentration. A higher Kd goes with weaker binding. AUUAAACGUGA (ssRNA) [IR-rpoA-A]: the Kd in data set [1] (label: 5' IRDye 800CW) stood at 224 nM; in data set [2] (label: 5' IRDye 800CW) it was 218 nM; in data set [3] (label: 5' IRDye 800CW) it was 173 nM; in data set [4] (label: 5' IRDye 800CW), 166 nM; in data set [5] (label: 5' IRDye 800CW), 320 nM.

Turning to AUUAUACGUGA (ssRNA) [IR-rpoA-U], the Kd in data set [1] (label: 5' IRDye 800CW) came out at 253 nM; in data set [2] (label: 5' IRDye 800CW) it was 320 nM; in data set [3] (label: 5' IRDye 800CW), 85.9 nM; in data set [4] (label: 5' IRDye 800CW), 167 nM; in data set [5] (label: 5' IRDye 800CW), 204 nM.

For the molecule AUUAGACGUGA (ssRNA) [Cy5-rpoA-G], the equilibrium dissociation constant (Kd) in data set [1] (label: 5' Cy5) was found to be 121 nM; in data set [2] (label: 5' Cy5) it was 115 nM; in data set [3] (label: 5' Cy5), 98.5 nM; in data set [4] (label: 5' Cy5) it was 126 nM; in data set [5] (label: 5' Cy5), 134 nM.

On to AUUACACGUGA (ssRNA) [Cy5-rpoA], for which the Kd is 122 nM in data set [1] (label: 5' Cy5); 138 nM in data set [2] (label: 5' Cy5); 74.7 nM in data set [3] (label: 5' Cy5); 144 nM in data set [4] (label: 5' Cy5); 140 nM in data set [5] (label: 5' Cy5).

(Values after publication PMC8809517, “Cofactor-independent RNA editing by a synthetic S-type PPR protein”.)
